Data reported in patent US6328728A, “Composition and method for enhancing electrotransport agent delivery” (Alza Corporation, priority 1997, dated 2001).

Assay: Measurement of circular dichroism (mean residue ellipticity at 222 nm)
Format: physicochemical
Settings: for Ellipticity (mean residue at 222 nm) / Ellipticity (mean residue) (222 nm), raw / Ellipticity (mean residue) (222 nm), raw value: 32° C.
Source text: In general, the structure of a polypeptide in an aqueous buffered solution is in constant flux between portions thereof being random coil and alpha-helix configurations. For the polypeptides used in the following examples, the predominant structure is a random coil since the alpha-helix configuration is unstable in the absence of bound surfactant. According to the present invention adding surfactant to an aqueous solution of a polypeptide stabilizes the alpha-helix configuration. Circular dichroism is a measurement of the amount of the alpha-helix configured polypeptide present in the solution. Thus, circular dichroism provides an indirect measurement of the degree of binding of the surfactant to the polypeptide. (See, for example, Epand R. M., Epand R. F., Orlowski R. C., Schuleter R. J., Boni L. T. and Hui S. W., Biochemistry 22, 5074-5084 (1983); Hui, S. W., Epand R. M., Dell K. R., Epand R. F. and Orlowski R. C., Biochimica Biophysica Acta 772, 264-272 (1984); Epand R. M., Epand R. F., and Orlowski R. C., International Journal Peptide Protein Research 25 105-111; Epand R. M., Epand R. F., Orlowski R. C., Seyler J. K. and Colescott R. L., Biochemistry 25, 1964-1968; Epand R. M., Seyler J. K. and Orlowski R. C., European Journal Biochemistry 159, 125-127 (1986); Wiersema P. H., Loeb A. L. and Overbeek, J., Colloid Interface Science 22, 78-99 (1966)).
The surfactant/peptide circular dichroism (CD) spectra were obtained in a 2 mm path-length cell (110-Q-2 Model, AVIV, Lakewood, N.J.) at 32° C. The cell was initially loaded with 0.60 mL of a solution containing about 0.25 mg/mL of the peptide in 10 mM sodium chloroacetate (pH 3.5) or 10 mM sodium borate (pH 9.0). The buffers were selected to minimize the effect of the temperature on the pH of the solution and to minimize light absorption, thereby optimizing the signal-to-noise ratio (SNR). The peptide concentration was determined by spectrophotometry, with log-log correction for light scattering. The surfactant concentration was increased step-wise by titration of concentrated surfactant stock directly into the CD cell, followed by eight inversions of the cell, with the air bubble providing the mixing turbulence. After mixing, the cell was placed into the AVIV 62 CD spectrometer (AVIV, Lakewood, N.J.). In order to approximate temperature and chemical equilibrium, the sample remained in the spectrometer 5 minutes before a reading was taken. The CD spectrum was taken using a band pass of 1 nm, a data interval of 1 nm, and a data averaging time of 10 seconds. The mean residue ellipticity is the ellipticity divided by the path length in cm times the amino acid residue concentration in decimoles/cm^3. See Methods in Enzymology, Vol 130, pp 208-269, Yang et al, "Calculation of Protein Conformation from Circular Dichroism" (1986).
The measurement procedures described above were conducted on an aqueous solution of the protein insulinotropin, with TWEEN® 20 (MW=1126 g/mol) as the surfactant, with the following modifications. The insulinotropin donor solution concentration was 0.12 mg/mL. One test was run in 10 mM sodium borate at pH 9.0 and another test in 10 mM sodium chloroacetate at pH 3.5.
Fractional changes (%δ) are defined as the difference between the reading at a given surfactant concentration (Ec) minus the reading at zero surfactant (E0), the quantity divided by the difference between the reading at saturated surfactant concentration (Es) minus the reading at zero surfactant (E0), i. e. %δ=(Ec -E0)/(Es-E0).
The measurement procedures described earlier were conducted on an aqueous solution of insulinotropin as the agent, and TWEEN® 40 (molecular weight 1282 g/mol) as the surfactant with the following changes. The insulinotropin concentration was initially 0.29 mg/mL, and 0.21 mg/mL after the final TWEEN® 40 addition and the temperature was held at 32° C. Two tests were conducted at two different concentrations of TWEEN® 40. […]

[1] = pH 3.5, 10 mM sodium chloroacetate, TWEEN 20 0
[2] = pH 3.5, 10 mM sodium chloroacetate, TWEEN 20 0.133 mM
[3] = pH 3.5, 10 mM sodium chloroacetate, TWEEN 20 0.266 mM
[4] = pH 9.0, 10 mM sodium borate, TWEEN 20 0
[5] = pH 9.0, 10 mM sodium borate, TWEEN 20 0.133 mM
[6] = pH 9.0, 10 mM sodium borate, TWEEN 20 0.266 mM
[7] = pH 9.0, 10 mM sodium borate, TWEEN 20 0.515 mM
[8] = pH 9.0, 10 mM sodium borate, TWEEN 20 1.00 mM
[9] = pH 9.0, 10 mM sodium borate, TWEEN 20 1.67 mM
[10] = pH 9.0, 10 mM sodium borate, TWEEN 20 2.56 mM
[11] = pH 9.0, 10 mM sodium borate, TWEEN 20 2.66 mM
[12] = pH 9.0, 10 mM sodium borate, TWEEN 20 4.00 mM
[13] = pH 9.0, 10 mM sodium borate, TWEEN 20 5.00 mM
[14] = pH 9.0, 10 mM sodium borate, TWEEN 20 7.04 mM
[15] = pH 9.0, 10 mM sodium borate, TWEEN 20 7.26 mM
[16] = pH 9.0, 10 mM sodium borate, TWEEN 20 9.41 mM
[17] = pH 9.0, 10 mM sodium borate, TWEEN 20 12.3 mM
[18] = pH 9.0, 10 mM sodium borate, TWEEN 20 17.7 mM
[19] = pH 9.0, 10 mM sodium borate, TWEEN 20 20.0 mM
[20] = pH 9.0, 10 mM sodium borate, TWEEN 20 22.1 mM

## Insulinotropin: the protein insulinotropin
pH 3.5, 10 mM sodium chloroacetate, DTAC 0
  Ellipticity (mean residue at 222 nm): -4268 deg-cm^2 /dmol
pH 3.5, 10 mM sodium chloroacetate, DTAC 0.83 mM
  Ellipticity (mean residue at 222 nm): -5182 deg-cm^2 /dmol
pH 3.5, 10 mM sodium chloroacetate, DTAC 1.64 mM
  Ellipticity (mean residue at 222 nm): -7285 deg-cm^2 /dmol
pH 3.5, 10 mM sodium chloroacetate, DTAC 3.23 mM
  Ellipticity (mean residue at 222 nm): -9863 deg-cm^2 /dmol
pH 3.5, 10 mM sodium chloroacetate, DTAC 5.51 mM
  Ellipticity (mean residue at 222 nm): -11672 deg-cm^2 /dmol
pH 3.5, 10 mM sodium chloroacetate, DTAC 9.10 mM
  Ellipticity (mean residue at 222 nm): -11951 deg-cm^2 /dmol
pH 3.5, 10 mM sodium chloroacetate, DTAC 13.0 mM
  Ellipticity (mean residue at 222 nm): -12219 deg-cm^2 /dmol
pH 3.5, 10 mM sodium chloroacetate, DTAC 25.0 mM
  Ellipticity (mean residue at 222 nm): -12326 deg-cm^2 /dmol
[1]
  Ellipticity (mean residue) (222 nm), raw: -4877
  Ellipticity, fractional change (% δ): 0
[2]
  Ellipticity (mean residue) (222 nm), raw: -7087
  Ellipticity, fractional change (% δ): 0.21
[3]
  Ellipticity (mean residue) (222 nm), raw: -8437
  Ellipticity, fractional change (% δ): 0.34
pH 3.5, 10 mM sodium chloroacetate, TWEEN 40 0
  Ellipticity (mean residue at 222 nm): -4621 deg-cm^2 /dmol
pH 3.5, 10 mM sodium chloroacetate, TWEEN 40 0.025 mM
  Ellipticity (mean residue at 222 nm): -4997 deg-cm^2 /dmol
pH 3.5, 10 mM sodium chloroacetate, TWEEN 40 0.092 mM
  Ellipticity (mean residue at 222 nm): -6045 deg-cm^2 /dmol
pH 3.5, 10 mM sodium chloroacetate, TWEEN 40 0.214 mM
  Ellipticity (mean residue at 222 nm): -7317 deg-cm^2 /dmol
pH 3.5, 10 mM sodium chloroacetate, TWEEN 40 0.390 mM
  Ellipticity (mean residue at 222 nm): -8554 deg-cm^2 /dmol
pH 3.5, 10 mM sodium chloroacetate, TWEEN 40 0.718 mM
  Ellipticity (mean residue at 222 nm): -10379 deg-cm^2 /dmol
pH 3.5, 10 mM sodium chloroacetate, TWEEN 40 1.21 mM
  Ellipticity (mean residue at 222 nm): -12282 deg-cm^2 /dmol
pH 3.5, 10 mM sodium chloroacetate, TWEEN 40 2.06 mM
  Ellipticity (mean residue at 222 nm): -14017 deg-cm^2 /dmol
pH 3.5, 10 mM sodium chloroacetate, TWEEN 20 0.515 mM
  Ellipticity, fractional change (% δ): 0.58
pH 3.5, 10 mM sodium chloroacetate, TWEEN 20 1.00 mM
  Ellipticity, fractional change (% δ): 0.59
pH 3.5, 10 mM sodium chloroacetate, TWEEN 20 1.67 mM
  Ellipticity, fractional change (% δ): 0.91
pH 3.5, 10 mM sodium chloroacetate, TWEEN 20 2.28 mM
  Ellipticity, fractional change (% δ): 0.96
pH 3.5, 10 mM sodium chloroacetate, TWEEN 20 3.20 mM
  Ellipticity, fractional change (% δ): 0.97
pH 3.5, 10 mM sodium chloroacetate, TWEEN 20 4.44 mM
  Ellipticity, fractional change (% δ): 1.00
[4]
  Ellipticity (mean residue) (222 nm), raw value: -5010
  Ellipticity, fractional change (% δ): 0
[5]
  Ellipticity (mean residue) (222 nm), raw value: -5641
  Ellipticity, fractional change (% δ): .11
[6]
  Ellipticity (mean residue) (222 nm), raw value: -6252
  Ellipticity, fractional change (% δ): .21
[7]
  Ellipticity (mean residue) (222 nm), raw value: -6553
  Ellipticity, fractional change (% δ): .26
[8]
  Ellipticity (mean residue) (222 nm), raw value: -7050
  Ellipticity, fractional change (% δ): .35
[9]
  Ellipticity (mean residue) (222 nm), raw value: -7857
  Ellipticity, fractional change (% δ): .49
[10]
  Ellipticity (mean residue) (222 nm), raw value: -7915
  Ellipticity, fractional change (% δ): .50
[11]
  Ellipticity (mean residue) (222 nm), raw value: -8970
  Ellipticity, fractional change (% δ): .68
[12]
  Ellipticity (mean residue) (222 nm), raw value: -9165
  Ellipticity, fractional change (% δ): .71
[13]
  Ellipticity (mean residue) (222 nm), raw value: -9124
  Ellipticity, fractional change (% δ): .70
[14]
  Ellipticity (mean residue) (222 nm), raw value: -10288
  Ellipticity, fractional change (% δ): .90
[15]
  Ellipticity (mean residue) (222 nm), raw value: -9702
  Ellipticity, fractional change (% δ): .80
[16]
  Ellipticity (mean residue) (222 nm), raw value: -10451
  Ellipticity, fractional change (% δ): .92
[17]
  Ellipticity (mean residue) (222 nm), raw value: -10540
  Ellipticity, fractional change (% δ): .94
[18]
  Ellipticity (mean residue) (222 nm), raw value: -10709
  Ellipticity, fractional change (% δ): .97
[19]
  Ellipticity (mean residue) (222 nm), raw value: -10876
  Ellipticity, fractional change (% δ): 1.00
[20]
  Ellipticity (mean residue) (222 nm), raw value: -10872
  Ellipticity, fractional change (% δ): 1.00
